System: MS2 coat protein
Test: apparent KD of MS2 coat protein; designed switch direction (-1 OFF switch, 1 ON switch): -1; higher = weaker reporter binding
In short: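 RNA switches sharing common flanks were transcribed by stalled E. coli RNA polymerase on Illumina chips. A doubling series of SNAP-549-labelled MS2 coat protein, from 0.7 or 1.5 nM to 3 µM, was applied in Tris-HCl pH 7.5 buffer with KCl, MgCl2, BSA, DTT, tRNA and Tween-20. Each step lasted 0.8–1.5 h at the bottom of the series and 10–20 min at the top. Normalised cluster fluorescence was curve-fitted, giving apparent KD as the per-design median over clusters.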

[1] = input ligand: microRNA oligo, concentration not stated
[2] = Eterna round: R95, input ligand: FMN 200 uM
[3] = Eterna round: R95, input ligand: microRNA oligo, concentration not stated
[4] = Eterna round: R95, input ligand: none

## CGCUGGACAGGAUAUGUUCUUGGGCACUUGAGGAUCACCCAAGUCAUCAAGACAACAGGCACAGAAGGGUUUAUGG [salish99_ex5_r4_023] (Eterna round: R97, puzzle: Exclusion 5)
Input ligand: FMN 200 uM
  apparent KD of MS2 coat protein: 20.6 nM
Input ligand: none
  apparent KD of MS2 coat protein: 18.4 nM

## ACUAGAUGAGGAUAUGCACAUUUUAGUGUUCCUCUAGAUUAACAUGAGGAUCACCCAUGUAGAAGGCGUCAUUU [Exclusion 2 - 13] (Eterna round: R96, puzzle: Exclusion 2)
Input ligand: FMN 200 uM
  apparent KD of MS2 coat protein: 119 nM
[1]
  apparent KD of MS2 coat protein: 59.1 nM
Input ligand: none
  apparent KD of MS2 coat protein: 84.2 nM

## CCCAGUUAUUGAGGAUAUCGUACAUGAGGAUCACCCAUGUAAUAAAUGAGGAUUUCGGGUGUCUACGAGAAGGCAAGGAUAGGC [Ostracism 21 - Jieux - Exclusion NG 2] (Eterna round: R96, puzzle: Exclusion NG 2)
Input ligand: FMN 200 uM
  apparent KD of MS2 coat protein: 61.3 nM
[1]
  apparent KD of MS2 coat protein: 37.4 nM
Input ligand: none
  apparent KD of MS2 coat protein: 49.6 nM

## AGAAAUGCCCAUGGCCGCAAGCCUUUUGCUUGUCUUACCACAUGAGGAUCACCCAUGUGACAUGGGCUCCUGAUAAU [Zace] (puzzle: Sensor v3, turn-off variant 2)
[2]
  apparent KD of MS2 coat protein: 12.6 nM
[3]
  apparent KD of MS2 coat protein: 10.4 nM
[4]
  apparent KD of MS2 coat protein: 11 nM

## UUAUGGCGAGAGGAUAUUCUGCUACGGCCCGGAGAAGAAGGUUUGACAUGAGGAUCACCCAUGUGGUCGCUCCU [Eternabot (L2) Solution 29] (Eterna round: R97, puzzle: Exclusion 6)
Input ligand: FMN 200 uM
  apparent KD of MS2 coat protein: 138 nM
Input ligand: none
  apparent KD of MS2 coat protein: 238 nM

## GAGGAACAUGAGGAUCACCCAUGUGAGGAUAUGCAUAGUGAGCUAGUAGACGUUUAUUGCAGAAGGUACACUGA [JR_Exclu1_Sub080] (puzzle: Exclusion 1)
[3]
  apparent KD of MS2 coat protein: 25.3 nM

## AGCUGUGGCCGAGGAUAUCUAAACCUUCAAACCGAGGUAUACUCGGACAUGAGGAUCACCCAUGUAGAGAAGGCGGUCUCAGCA [Eli eng2 - 035] (Eterna round: R96, puzzle: Exclusion NG 2)
Input ligand: FMN 200 uM
  apparent KD of MS2 coat protein: 34.7 nM
[1]
  apparent KD of MS2 coat protein: 9.78 nM
Input ligand: none
  apparent KD of MS2 coat protein: 13.4 nM

## GUCCGACAUGAGGAUCACCCAUGUGAGGAUAUGCGAUUAGCUGCUAGGUAGUUAGUAUGUAGAAGGUGCAUGAA [EX1 #75] (Eterna round: R97, puzzle: Exclusion 1)
Input ligand: FMN 200 uM
  apparent KD of MS2 coat protein: 18.8 nM
Input ligand: none
  apparent KD of MS2 coat protein: 17.5 nM

## GCCCGGCGUGUAGGAUAUGGUUCCGUUUCGGUUCCAGAAGGACAUGAGGAUACAUGAGGAUCACCCAUGUGGUCGUCACCGGGC [salish99_ExNG1_r04_402] (Eterna round: R96, puzzle: Exclusion NG 1)
Input ligand: FMN 200 uM
  apparent KD of MS2 coat protein: 37.4 nM
[1]
  apparent KD of MS2 coat protein: 26 nM
Input ligand: none
  apparent KD of MS2 coat protein: 38.7 nM

## CAAUUAAUUAAUUAAUAAUACAUGAGGAUCACCCAUGUAGAUCCUACAUACAAGCUAAGUAGCUCGUCUUAUAAUUA [Stov1/2-A3] (Eterna round: R97, puzzle: Sensor, turn-off variant 1)
Input ligand: FMN 200 uM
  apparent KD of MS2 coat protein: 417 nM
Input ligand: none
  apparent KD of MS2 coat protein: 625 nM

## UUAUUGUGUGUAGGAUAUGCGUGUUAUUAUUAUGCAGAAGGACAUGAGGAUCACCCAUGUGUAUUGUUAUUAUAUAUUAUAUAU [Title] (Eterna round: R96, puzzle: Exclusion NG 1)
Input ligand: FMN 200 uM
  apparent KD of MS2 coat protein: 48.2 nM
[1]
  apparent KD of MS2 coat protein: 21.2 nM
Input ligand: none
  apparent KD of MS2 coat protein: 27 nM

## UAAUACAAGUAAAGAUCCUACAUGAGGAUCACCCAUGUGCUCGUCUUGUAAAGUACUAUCACGAAAGUGAUAGUACA [Mat - Sensor v3 - turn-off var 1 - Eli Mod - D85] (puzzle: Sensor v3, turn-off variant 1)
[2]
  apparent KD of MS2 coat protein: 41 nM
[3]
  apparent KD of MS2 coat protein: 196 nM
[4]
  apparent KD of MS2 coat protein: 53.1 nM

## GGUUGACAUGAGGAUCACCCAUGUGAGGAUAUGCGAGAGAAAAAAGUGAGGAAGUUUAGCAGAAGGCGCUGUCG [salish99-ex1_r3_006] (puzzle: Exclusion 1)
[2]
  apparent KD of MS2 coat protein: 55.6 nM
[3]
  apparent KD of MS2 coat protein: 71 nM
[4]
  apparent KD of MS2 coat protein: 97.7 nM

## ACGUUCAUUGAACAUGAGGAUCACCCAUGUGGCCUCCGGGUGGAGGAUAUGCACCAGGCCGAGGUGUAGAAGGCCAUAUACCGA [Riraed] (Eterna round: R96, puzzle: Exclusion NG 3)
Input ligand: FMN 200 uM
  apparent KD of MS2 coat protein: 155 nM
[1]
  apparent KD of MS2 coat protein: 49 nM
Input ligand: none
  apparent KD of MS2 coat protein: 81.4 nM

## UGUGUACAUGAGGAUCACCCAUGUCAGGAUAUCUAGGCUCUCUCACUGACAACAGCCAAGAGAAGGGACGAGGU [EX1 B.7] (Eterna round: R97, puzzle: Exclusion 1)
Input ligand: FMN 200 uM
  apparent KD of MS2 coat protein: 36.3 nM
Input ligand: none
  apparent KD of MS2 coat protein: 29.5 nM

## CUAGGUCGAGGAUAUACAUGAGGAUCACCCAUGUCGGUUCCAUGAGAGCUAGACACUAGUAGAAGGCGGUAGGC [Eternabot (L2) Solution 60] (Eterna round: R97, puzzle: Exclusion 3)
Input ligand: FMN 200 uM
  apparent KD of MS2 coat protein: 26.1 nM
Input ligand: none
  apparent KD of MS2 coat protein: 27.8 nM

## GCUGGACAAGGAUAUACAUGAGGAUCACCCAUGUGAUCAGCAGUCCUCGGACUGCAAUGUAGAAGGUGUCCAGC [E3/1-C2] (Eterna round: R97, puzzle: Exclusion 3)
Input ligand: FMN 200 uM
  apparent KD of MS2 coat protein: 38.9 nM
Input ligand: none
  apparent KD of MS2 coat protein: 198 nM

## GGCGAGCGAGGAUAUACAGGGUAUCCGACUCGCCGCGGGCGACAUGAGGAUCACCCAUGUAGAAGGCGCACGCG [EX2 A.18] (Eterna round: R97, puzzle: Exclusion 2)
Input ligand: FMN 200 uM
  apparent KD of MS2 coat protein: 13.9 nM
Input ligand: none
  apparent KD of MS2 coat protein: 17.6 nM

## GCCGAAAAUGUGAGGAUAUACCUAUGGAAACAUAGGUAGAAGGCACAUGAGGAUCACCCAUGUUCCUCAUCGGC [Mat - Exclusion 4 - Eli Mod - D17] (Eterna round: R97, puzzle: Brourd's mod of Exclusion 4)
Input ligand: FMN 200 uM
  apparent KD of MS2 coat protein: 729 nM
Input ligand: none
  apparent KD of MS2 coat protein: 120 nM

## GUAGAGUAAGGAUAUUGAGAAUAGGAUAGAAUGGUUAGAAUCAAGAAGGUACAUGAGGAUCACCCAUGUAAUGU [Excluse me!!!! 6 - Jieux - Exclusion 4] (puzzle: Exclusion 4)
[2]
  apparent KD of MS2 coat protein: 16.8 nM
[3]
  apparent KD of MS2 coat protein: 22.2 nM
[4]
  apparent KD of MS2 coat protein: 19.7 nM

## CUUUUGUGAGGAUAUUAGUAGUAAAUAAAUAAAAUUACUACUGAGAAGGCACAUGAGGAUCACCCAUGUUCCUU [salish99_ex4_r3_067] (puzzle: Exclusion 4)
[3]
  apparent KD of MS2 coat protein: 14 nM

## AAAUAACAAGCAAGAUCCUACAUGAGGAUCACCCAUGUGCUCGUCUUAUAAAGUACUAUCACGAAAGUGAUAGUACA [Sensor 3, v1 - 11] (puzzle: Sensor v3, turn-off variant 1)
[2]
  apparent KD of MS2 coat protein: 675 nM
[3]
  apparent KD of MS2 coat protein: 392 nM
[4]
  apparent KD of MS2 coat protein: 546 nM

## GCACGAAGUGGAGGAUAUCUGGGCGAGGAGCGCAGAGAAGGCCACAUGAGGAUCACCCAUGUUUUCCACGGAUAGCAAACGUGC [exng1 ex2.1] (Eterna round: R96, puzzle: Exclusion NG 1)
Input ligand: FMN 200 uM
  apparent KD of MS2 coat protein: 25.5 nM
[1]
  apparent KD of MS2 coat protein: 15.2 nM
Input ligand: none
  apparent KD of MS2 coat protein: 23 nM

## AAGUAUAGAGGAUAUAGUAGGUACAACAUGAGGAUCACCCAUGUUCUUCAUAACGUAUUUCUAGAAGGCUGAUAAA [EX-5 Malc#27] (puzzle: Exclusion 5)
[3]
  apparent KD of MS2 coat protein: 174 nM

## AAGAAACAUGAGGAUCACCCAUGUGAGGAUAUGAUUAAGAAAAGAAAAGAAAGAAGACUCAGAAGGCACAAAGG [salish99-ex1_r3_069] (puzzle: Exclusion 1)
[2]
  apparent KD of MS2 coat protein: 55.5 nM
[3]
  apparent KD of MS2 coat protein: 80.9 nM
[4]
  apparent KD of MS2 coat protein: 45.5 nM

## CUUAGACAUGAGGAUCACCCAUGUGAGGAUAUGAUGCGGGAGACGAAAAGUUUCAGCAUCAGAAGGCACAUAUG [mod of disincluded 3 v.3 (my top score 87 - 34% A's)] (puzzle: Exclusion 1)
[2]
  apparent KD of MS2 coat protein: 349 nM
[3]
  apparent KD of MS2 coat protein: 175 nM
[4]
  apparent KD of MS2 coat protein: 172 nM

## GCACUGGCAGGAUAUACAUGAGGAUCACCCAUGUGAUCCCUUAAGUACAAAAGUACUAGUAGAAGGGCCUGUGC [Omei Ex3 Model Bachelor's Dilema v46] (Eterna round: R97, puzzle: Exclusion 3)
Input ligand: FMN 200 uM
  apparent KD of MS2 coat protein: 307 nM
Input ligand: none
  apparent KD of MS2 coat protein: 785 nM

## GAUUAUGCGAGCUUUAGGGACAUGAGGAUCACCCAUGUUCGUCUUAUUGAUCUAGGUACGCUGACGUACCUAGAUCU [JL-sv1-2.35 Brourd mod] (puzzle: Sensor v3, turn-off variant 1)
[2]
  apparent KD of MS2 coat protein: 21.9 nM
[3]
  apparent KD of MS2 coat protein: 33.7 nM
[4]
  apparent KD of MS2 coat protein: 21.8 nM

## AAGAAGCUAGGAUAUACAUGAGGAUCACCCAUGUCUCCAUGGUUGACGAGUUCCGCACGUAGAAGGAGCAAAAC [Aerdidima] (Eterna round: R97, puzzle: Exclusion 3)
Input ligand: FMN 200 uM
  apparent KD of MS2 coat protein: 225 nM
Input ligand: none
  apparent KD of MS2 coat protein: 56.7 nM

## UUAUUAAUUAAGACUGCAAGAUCACAUGAGGAUCACCCAUGUCAGGAUAUCAGCUCGUGUAGAGCUGAGAAGGGACAAGCAGUC [ExNG3/15-A3] (Eterna round: R96, puzzle: Exclusion NG 3)
Input ligand: FMN 200 uM
  apparent KD of MS2 coat protein: 314 nM
[1]
  apparent KD of MS2 coat protein: 97.5 nM
Input ligand: none
  apparent KD of MS2 coat protein: 123 nM

## UUUAGUUCAGGAUAUGUAGAUUUAAACAUGAGGAUCACCCAUGUAGAUCCUGAUCCUGCUACAGAAGGGAACAUUU [Exclusion 5: 2:a mod1] (Eterna round: R97, puzzle: Exclusion 5)
Input ligand: FMN 200 uM
  apparent KD of MS2 coat protein: 72.9 nM
Input ligand: none
  apparent KD of MS2 coat protein: 24.3 nM

## CCCGUGUAAGGAUAUCGUUCACUUGGCAAAAGUCGAGUGGACGAGAAGGUACAUGAGGAUCACCCAUGUACGGG [-32.4, -32 kcal, A 28%] (Eterna round: R97, puzzle: Exclusion 4)
Input ligand: FMN 200 uM
  apparent KD of MS2 coat protein: 406 nM
Input ligand: none
  apparent KD of MS2 coat protein: 282 nM

## GUAAACGUAUAGGAUAUUUCAGGUCAAAGCUGCAAAGAAGGAUGCACAUGAGGAUCACCCAUGUGGUCAAUAAA [Mod of Quesina 24 - Jieux - Exclusion 6] (Eterna round: R97, puzzle: Exclusion 6)
Input ligand: FMN 200 uM
  apparent KD of MS2 coat protein: 25.7 nM
Input ligand: none
  apparent KD of MS2 coat protein: 22.2 nM
